Legend:
[1] = target: USP33 zf-UBP domain, tag cleaved (for FP) (human) (UniProt Q8TEY7); test: fluorescence polarisation; displacement: unlabeled peptide titrated into the domain (at two-fold the KD of the FITC-labeled peptide) with 10 nM FITC-labeled peptide; 50 mM phosphate buffer pH 7.4, DTT, room temperature; estimated KD
[2] = target: USP22 zf-UBP domain, tag cleaved (for FP) (human) (UniProt Q9UPT9); test: fluorescence polarisation; saturation or displacement not stated for this experiment; 50 mM phosphate buffer pH 7.4, room temperature
[3] = target: CYLD CAP-Gly2 domain, GST-tagged (UniProt Q9NQC7); test: peptide SPOT array alanine scanning; conditions: parent: est. 0; read off a plot
[4] = target: USP20 DUSP2 domain (human) (UniProt Q9Y2K6); test: fluorescence polarisation; displacement: serial dilution of the unlabelled peptide against the domain (at two-fold the KD of the FITC-labelled peptide) in complex with 10 nM FITC-labelled peptide; 50 mM phosphate buffer pH 7.4; room temperature; three technical replicates; sigmoidal dose-response fit
[5] = target: USP33 DUSP2 domain (human) (UniProt Q8TEY7); test: as above
[6] = target: USP20 DUSP2 domain, tag cleaved (for FP) (human); test: fluorescence polarisation; displacement: unlabeled peptide titrated into the domain (at two-fold the KD of the FITC-labeled peptide) with 10 nM FITC-labeled peptide; 50 mM phosphate buffer pH 7.4, DTT, room temperature; estimated KD
[7] = target: USP33 DUSP2 domain, tag cleaved (for FP) (human) (UniProt Q8TEY7); test: as above
[8] = target: CYLD CAP-Gly1 domain, GST-tagged (UniProt Q9NQC7); test: peptide SPOT array alanine scanning; conditions: parent: est. 0; read off a plot
[9] = target: FITC-ORAI1 48-63 peptide (human); test: fluorescence polarisation; saturation: serial dilution of the protein domain, 10 nM FITC-labelled peptide; 50 mM phosphate buffer pH 7.4 with DTT; room temperature; three technical replicates; quadratic fit
[10] = target: FITC-GPR137B 348-362 peptide (human); test: as above
[11] = target: FITC-APBA2 327-338 peptide (human); test: as above
[12] = target: FITC-ATXN7L1 36-57 peptide (human); test: as above
[13] = target: FITC-HIF1A 568-581 peptide (human); test: as above

“APBA2_(327-338) peptide N334A (from UniProt Q99767 327-338)” was tested, and the Kd [1] was 112 µM.

For “APBA2_(327-338) peptide R330A (from UniProt Q99767 327-338)”, the Kd [1] was over 500 µM.

“APBA2_(327-338) peptide, wild type, unlabeled” was tested, and the Kd [1] was under 8 µM.

“ATXN7_(84-105) peptide (from UniProt O15265 84-105)” gave a Kd [2] of 58 µM.

With “FBXO46_(168-183) peptide A173 (replacement residue not printed)” the other: signal change (%) [3] was -75%.

With “FBXO46_(168-183) peptide A177 (replacement residue not printed)” the other: signal change (%) [3] was -80%.

“FBXO46_(168-183) peptide A183 (replacement residue not printed)” showed an other: signal change (%) [3] of -55%.

FBXO46_(168-183) peptide D168A gave an other: signal change (%) [3] of 150%.

In the case of FBXO46_(168-183) peptide E174A, the other: signal change (%) [3] is reported as -80%.

FBXO46_(168-183) peptide E180A gave an other: signal change (%) [3] of -75%.

FBXO46_(168-183) peptide L169A was tested, and the other: signal change (%) [3] was -70%.

With FBXO46_(168-183) peptide L170A the other: signal change (%) [3] was -70%.

Work on FBXO46_(168-183) peptide L178A yielded an other: signal change (%) [3] of -65%.

FBXO46_(168-183) peptide M175A gave an other: signal change (%) [3] of -90%.

With FBXO46_(168-183) peptide Q181A the other: signal change (%) [3] was 0%.

FBXO46_(168-183) peptide R182A showed an other: signal change (%) [3] of -85%.

For FBXO46_(168-183) peptide S171A, the other: signal change (%) [3] was -70%.

For FBXO46_(168-183) peptide V172A, the other: signal change (%) [3] was -75%.

For FBXO46_(168-183) peptide V176A, the other: signal change (%) [3] was -85%.

With FBXO46_(168-183) peptide V179A the other: signal change (%) [3] was -80%.

HIF1A 564-581 F572A peptide showed a Kd [4] of 589 µM and a Kd [5] of 930 µM.

Substance HIF1A peptide hydroxylated at P564 has a Kd [6] of 26 µM and a Kd [7] of 7 µM.

“HIF1A_(564-581) peptide D571K (from UniProt Q16665 564-581)” was tested, and the Kd [6] was 85 µM and the Kd [7] was 145 µM.

With “HIF1A_(564-581) peptide F572A (from UniProt Q16665 564-581)” the Kd [7] was over 900 µM.

“HIF1A_(564-581) peptide L574A (from UniProt Q16665 564-581)” gave a Kd [6] of 89 µM and a Kd [7] of over 200 µM.

Work on “HIF1A_(564-581) peptide, wild type, unlabeled (from UniProt Q16665 564-581)” yielded a Kd [6] of 19 µM and a Kd [7] of 1.5 µM.

For “RBM25_(558-573) peptide (from UniProt P49756) A560 (replacement residue not printed)”, the other: signal change (%) [8] was -25%.

With “RBM25_(558-573) peptide (from UniProt P49756) A569 (replacement residue not printed)” the other: signal change (%) [8] was -60%.

“USP11 DUSP-UBL tandem domain (from UniProt P51784 1-963) (domain or fragment)” gave a Kd [9] of 294 µM.

With “USP20 DUSP2 domain (from UniProt Q9Y2K6 1-914) (domain or fragment)” the Kd [10] was 5.14 µM.

“USP20 DUSP2 domain K833E/K835E (from UniProt Q9Y2K6 1-914) (domain or fragment)” gave a Kd [10] of 293 µM.

With “USP20 DUSP2 domain N805A (from UniProt Q9Y2K6 1-914) (domain or fragment)” the Kd [10] was 140 µM.

In the case of “USP20 zf-UBP domain (from UniProt Q9Y2K6 1-914) (domain or fragment)”, the Kd [11] is reported as 2.91 µM.

For “USP20 zf-UBP domain E55K/D59R (from UniProt Q9Y2K6 1-914) (domain or fragment)”, the Kd [11] was 388 µM.

“USP22 zf-UBP domain (from UniProt Q9UPT9 1-525) (domain or fragment)” gave a Kd [12] of 1 µM.

In the case of “USP33 DUSP2 domain (from UniProt Q8TEY7 1-942) (domain or fragment)”, the Kd [13] is reported as 31.3 µM.

Substance “USP33 DUSP2 domain K863E/K865E (from UniProt Q8TEY7 1-942) (domain or fragment)” has a Kd [13] of 319 µM.

With “USP33 DUSP2 domain N835A (from UniProt Q8TEY7 1-942) (domain or fragment)” the Kd [13] was 353 µM.

Substance “USP33 zf-UBP domain (from UniProt Q8TEY7 1-942) (domain or fragment)” has a Kd [11] of 8.69 µM.

— publication PMC13376213, “Systematic discovery of motif-based interactions of the auxiliary domains of USP family deubiquitinases” (Nature Communications, 2026)
